We go through three substances from doi:10.1101/2022.08.15.503920.

What all share (test): SEC-SAXS
The test system of series [1] is P00924. Conditions: other: SEC-SAXS. (SEC sorts molecules by how far they enter the pores of the column.)
Series [2] addresses L-lactate dehydrogenase from hog muscle (Sus scrofa) (UniProt P00339).
Series [3] shares this target. The source holds these as a separate data set.
The target in series [4] is enolase from baker's yeast (baker's yeast) (UniProt P00924).
The target is the same in series [5]. The source holds these as a separate data set.

Where “and” joins values, the source holds several entries; their conditions need not be identical. Identical values can stand only once. Like-named read-outs stand apart in the source and are kept apart here.

Chain of enolase from baker's yeast (P00924 whole entry): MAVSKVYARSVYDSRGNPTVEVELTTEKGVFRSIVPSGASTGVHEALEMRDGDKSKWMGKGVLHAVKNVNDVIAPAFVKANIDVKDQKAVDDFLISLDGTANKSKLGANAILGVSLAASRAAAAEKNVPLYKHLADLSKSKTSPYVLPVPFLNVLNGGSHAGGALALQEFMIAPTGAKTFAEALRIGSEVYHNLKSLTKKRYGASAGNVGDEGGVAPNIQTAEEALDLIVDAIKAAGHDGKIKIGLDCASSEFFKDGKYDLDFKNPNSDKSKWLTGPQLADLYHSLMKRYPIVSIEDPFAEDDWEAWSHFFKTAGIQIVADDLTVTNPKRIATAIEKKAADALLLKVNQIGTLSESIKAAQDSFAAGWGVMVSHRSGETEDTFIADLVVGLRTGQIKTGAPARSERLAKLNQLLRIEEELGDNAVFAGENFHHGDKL

As for enolase from baker's yeast, in series [1], the “share of monomer and dimer in the main peak body at 100 MPa” value was “∼50% monomer/dimer mixture”.

A word on the stoichiometry N: it is the number of molecules, sites or subunits per partner or assembly. Turning to “L-lactate dehydrogenase from hog muscle (from UniProt P00339 1-332) (enzyme)”, the stoichiometry N in series [2] was 4; in series [3], 4 and 2.

On to “enolase from baker's yeast (from UniProt P00924 1-437) (enzyme)”, for which the stoichiometry N in series [4] and in series [5] was 2 throughout.
